Data: the nanobody polyreactivity screen of Harvey et al. (2022)

Experiment: yeast display, Sf9 membrane polyspecificity reagent, FACS + sequencing; frameworks hold sequencing errors
How it was run: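 Polyreactivity labels are assigned by the sorting gate from which each nanobody was recovered. The gates were low and high (top ~1%), set on anti-HA fluorescence for expression and streptavidin fluorescence for reagent binding. Before sorting, galactose-induced (36–48 hours) yeast display cells were stained for 1 hour at 4 °C with 10% biotinylated, detergent-solubilized Sf9 membrane reagent.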

| Sequence | polyreactivity (PSR sort gate) |
| --- | --- |
| QVQLVESGGGLVQAGGSLRLSCAASGFTFWRYTMGWYRQAPGKERELVAAINWSGGRTYYADSVKGRFTISRDNAKNTVYLQMNSLKPEDTAVYYCATGYSTSVGGSQGDSWGQGTQVTVSS | high polyreactivity |
| QVQLVESGGGLVQAGGSLRLSCAASGLTFIRYAMGWYRQAPGKERELVASISRGGSTYYADSVKGRVTISRDNAKNTVYLQMNSLKPEDTAVYYCAAQHVGHNYYNSGFYYWGQGTQVTVSS | low polyreactivity |
| QVQLVESGGGLVQAGGSLSLSCAASGSIFAYKAMGWYRQAPGKEREFVAVITRSDDSTYADSVKGRFTISRDNAKNNVYLQMNSLKPEDTAVYYCAVVANYVYSKYDYWGQGTQVTVSS | low polyreactivity |
| QVQLLESGGGLVQAGGSLRLSCAASGRIFVRNAMGWYRQAPGKERELVAAITSSGGRTYYADSVKGRFTISRDNAKNTVYLQMNSLKPEDTAVYYCNADDFGYASYEYWGQGSQVTVSS | low polyreactivity |
| QVQLVESGGGLVQAGGSLRLSCAASGRISRFYAMGWYRQAPGKERELVAGIRSGDSTNYADSVKGRFTISRDNAKNTVYLQMNSLKPEDTAVYYCAAVVFSDGRYGRANRMYYWGQGTQVTVSS | high polyreactivity |
| QVQLVESGGGLVQAGGSLRLSCAASGRTFLGYAMGWYRQAPGKERELVAAITWRGGITYYADSVKGRFTISRDNAKNTVYLQMNSLKPEDTAVYYCARDYGQYGWYRYGRTFDNWGQGTQVTVSS | high polyreactivity |
| QVQLVESGGGLVQAGGSLRLSCAASGSIFGTYAMGWYRQAPGKERELVAAITGRDGITYADSVKGRFTISCDNAKNTVYLQMNSLKPEDTAVYYCAAVSHGVYYQYRRRYYSWGQGTQVTVSS | high polyreactivity |
| QVKLVESGGGLVQEGGSLRLSCAASGRIFGNYAMGWYRQAPGKERELVAAIDLSGDSTYYADSVKGRFTISRDNAKNTVYLQMNSLKPEDTAVYYCAATDWFSEYFWGQGTQVTVSS | low polyreactivity |
| QVQLGESGGGLVQAGGSLRLSCAASGIIFLGYAMGSYRQAPGKERELVAAFYSGVRTYYADSVKGRFTISRDNAKNTVYLQMNSLKPEDTAVYYCNATWTPYSSKQYYYWGLGTQVTVSS | low polyreactivity |
| QVQLVESGGGLVQAGGSLRLSCAASGRIFAYYAMGWYRQAPGKERELVATINYSGTSTYYADSVKGRFTISRDNAKNTVYLQMNSLKPEDTAVYYCAARYGYAVYYYGTPVRRYYYWGQGTQVTVSS | high polyreactivity |
| QVQLVESGGGLVQAGGSLRLSCSASGRTFLGYAMGWYRQPPGKERELVAAISWDGTSTYYADSVKGRFTISRDNAKNNVYLQMNSLKTEDTAVYYCAAQYSYRMDYWGQGTQVTVSS | low polyreactivity |
| QVQLVESGGGLVQAGGSLRLSCAASGRIFGHYTMGWYRQAPGKERELVAAISWGGVRTYYADSVKGRFTISRDNAKNTVYLQMNSLKPEVTAVYYCAARWRRYVYPDGHLFWYDYWGQGTQVTVSS | high polyreactivity |
| QVQLVESGGGLVQAGGSLRLSCAASGRTFKYNAIGWYRQAPGKERELVAVISRSTGRTYYADSVKGRFTISRDNAKNTVYLQMNSLKPEDTAVYYCNRVSRQYYYQRGFEYDYWGQGTQVTVSS | high polyreactivity |
| QVQLVESGGGLVQAGGSLRLSCAASGSIFKYYAMGWYRQAPGKERELVAAITGSGGNTYYADSVKGRFTISRDNAKNTVYLQMNSLKPEDTAVYYCAATYWWAYVWAYSHVKSTNDYWGQGTQVTVSS | low polyreactivity |
| QVQLVESGGGLVQAGGTLRLSCAASGSTFGPNAMGWYRQAPGKEREVVATIRGSGATTYYADSVKGRFTISRDNAKNTVYLQMNSLKPEDSAVYYCDTAYFSGWYNRYGRATSYDYWGQGTEVTVSS | high polyreactivity |
| QVQLVESGGGLVQAGGSLRLSCAASGSIFPKYAMGWYRQAPGKERELVATISYRGGRTYYADSVKGRFTISRDNAKNTVYLQMYSLKPEDTAVYYCATRYPYYPFYVGIYELDYWGQGTQVTVSS | low polyreactivity |
| QVQLVESGGGLVQAGGSLRLSCAASGITFTRYAMGWYRQAPGKEREFVAAIRRSGGNTYYADSVKGRFTISRDNAKNTVYLQMNSLKPEDTAVYYCAASPDIIGTSGEDDYWGQGSQVTVSS | low polyreactivity |
| QVQLVESGGGLVQAGGSLRLSCAASGFTFRDYAMGWYRQAPGKERELVAAITRRGGNTYYADSVKGRFTISRDNAKNTVYLQMNSLKPEDTAVYYCAARALSGHYDYWGQGTQVTVSS | high polyreactivity |
| QVQLVESGRGLVQAGGSLRLSCAASGFTFYYYANGWYRQAPGKERELVAAISIGGSTYYADSVKGRFTISRDNAKNTVYLQMNCLKPEDTAVYYCNVVFTYWPPGTARYDYWGQGTQVTVSS | high polyreactivity |
| QVQLVESGGGLVQAGGSLRLSCAASGITFRRNAMGWYRQAPGKERELFAGITRGGTTKYADSVKGRFTISRDNAKNTVYLQMNSLKPEDTAVYFCAAKDNSYGGPPQFGYWGQGTQVTVSS | high polyreactivity |
| QVQLVESGGGLVQAGGSLRLSCAASGITFVKNAMGWYRQAPGKERELVARIRIGGSTSYADSVKGRFTISRDNAKNTVYLQMNSLKPEDPAVYYCARYAGRLSYRYEFWGQGTQVTLSS | high polyreactivity |
| QVQLVESGGGLVQAGGSLRLICAASGRTFYYYAMGWDRQAPGKERELVASISYSAGRTYADSVKGRFTISRDNAKNTVYLLMNSLKPEDTAVYYCAAALYVNPYNYGTARWYYYWGQGTQVTVSS | high polyreactivity |

| Sequence | polyreactivity (PSR sort gate) |
| --- | --- |
| HVQLVESGGGLVQAGGSLRLSCAASGRIFTLYDMGWYRQAPGKERELVAAISNSAGSTYYADSVKGRFTISRDNAKNTVYLQMNSLKPEDTAVYYCAAELWSWGGARDYWGQGTQVTVSS | high polyreactivity |
| QVQLVESGGGLVQAGGSLRLSCAASGGTFGVNAMGWYRQAPGKERELVAAISSSGGRTYYADSVKGRFTISRDNAKNTVYLQVNSLKPEDTAVYYCAARNYFWGQGTQVTVSS | low polyreactivity |
| QVQLVESGGGLVQAGGSLRLSCAASGRTFSLYTMGWYRQAPWKERELVASITSSGSTSYADSVKGRFTISRDNAKNTVYLQMNSLKPEDTAVYYCNAAVSYPKYPYVSPGVPSYDYWGQGTQVTVSS | low polyreactivity |
| QVQLVESVVGLVQAGGSLLLSCDASGGIFLRYAMGSYRQAPGKERELVARISNRGGSTYYADSVKGRFTISRDYAKNTVYLQMNSLKPEDTAVYYCAADRWSSSRGDYWGQGTQVTVSS | low polyreactivity |
| QVQLVESGGGLVQAGGSLRLSCAATGSIFASYAMGWYRQAPGKERELVASITRVDSTNYADSVKGRFTISRDNAKNTVYLQMNSLKPEDTAVYYCAADYYIVLTKSDGLFGSWGQGTQVTVSS | low polyreactivity |
| QVQLVESRGGLVQAGGSLRLSCSASGITFNHYAMGWYRQAPGKERQLVAAITGSGGSTYYADSVKGRFTISRDNGKNTVYLQMNSLKPEDTAVYYCKTSPKLTYAVLYDYWGQGTQVTVSS | high polyreactivity |
| QVQLVESGGGLVQAGGSLRLICAASGSTFAQNTMGWYRQAPGKERELVATISDGGGSTYYADSVKGRFTISRDNAKNTVYLQMNSLKPEDTSVYYCNTDRFWPSDFWGQGTQVTVSS | low polyreactivity |
| QVQLVESGGGLVQAGGSLRLSCAASGYTFRYNAMGWYKQAPWKDRELVATITRGGSTNYADSVKGRFTISRDNAKNTVYLQMNSLKPEDTEVYYCNKEAAPLGFVPSYYGRDYWGQGTQVTVSS | low polyreactivity |
| QVQLVESGGGLVQAGGSLRLSCAASGFIFRYFAMGWYRQAPGKERELVAAISRSGGSTYYADSVKGRFTISRDNAKNTVYLQMNSLKPEDTAVYYCAAKDGRSYYDLSPMDYWGQGSQVTVSS | low polyreactivity |
| QVQLVESGGGLVQAGGSLRLSCAASGYTFAPNTMGWYRQAPGKERELVATITVSGGITYADSVKGRFTISRDNAKNTVYLQMNSLKPEDTAVYYCAARTPGWYLPRDYWGQGTQVTVSS | low polyreactivity |
| QVQLVESGGGLVQAGGSLRLSCAASGRIFRSNSMGWYRQAPGKERELVATITRSGGSTYYADSGKGRFSISRDNAKNTVYVQKNSLKPEDTAVYYCNAVFGSAYRAQRIMGYWGQGTQVTVSS | low polyreactivity |
| HVRLQESGGGLVQAGGSLRQSCAACGAISPYYDMGWYRLAPGKEREFVASIAHGGTTYYADSVKGRFTTSRDNAKNTVYLQMKSMKTEDTAVYYCAVDYDVWHSHIYRGQGTQVTVSS | high polyreactivity |
| QVQLVESGGGLVQAGGSLRLSCAASGRTIEGYAMGCYRQAPGKERELVAAISRRGGSTYYADSVKGRFTISRDNAKNTVYLQMNSLKPEDTAVYYCAARDGSTGAVRYYYWGQGTQVTVSS | high polyreactivity |
| QVQLVESGGGLVQAGGSLRLSCAASGSTFGRNALGWYRQAPGKERELVASISWGGGSTYYADSVKGRFTISRDNSKNTVYLQMNSLKTEDTAVYYCNARRFLWSQLSGSFSYDYWGQGTQVTVSS | high polyreactivity |
| QVQLVESGGGLVQAGGSLLLSCAASGLIFYWYAMGWYRQAPGKERELVAAISGGDRTKYADSVKGRFTISRDNAKNTVYLQMISLKPEDSAVYYCATAPYDTSRRYGPYEYWGQRTQVTVSS | low polyreactivity |
| QVQLVESGGGLVQAGGSLRLSCAASGRTFSTYAMGWYRQAPGKERELVAGISRGGGSTYYADSVKGRFTISRDNAKNTVYLQMNSLKPEDTAVYYCAAKRPQYYVQYGYWGQGTQVTVSS | high polyreactivity |
| QVQLVESGGGLVQAGGSLRLSCAASGSIFEEYAMGWYRQAPGKERELVARIDESGGSTYYADSVKGRFTISRDNAKNTVYLQMNSLKPEDTAVYYCAAERYSDSWGYYSVDEGSWEMDYWGQGTQVTVSS | low polyreactivity |
| QVQLVDSGGGLFQAGGSLRLSCAASGRTFVGYSMGWYRQAPGKEMEVVATITNDDITYADSVKGRFTISRDNAMNTVYLQMNSLNPEETAVYYCNTSYSYGTAYEQYRYKALYDYWGHGTQVTVSS | low polyreactivity |
| QVQLVESGGGLVQAGGSLLLSCAAYGSISPYYTMGLYRQAPGKERELVAAICSGGRTYYADSVKGRFTISRDNAKNTVYLHMNSLNPEDTSVYYCAVEVAWYVHWGDMDYWGQGTQVTVSS | low polyreactivity |
| QVQLEESCGGLVQAGGSLRLSCAASGPIIRAYAMGWYRQAPGKERELVAAITRSGGSTYYADSVKGRFTISLDNAKNTVYLQMNSLKPEDTAVYYCNARTRYDDGYDSWGQGTQVTVSS | high polyreactivity |
| QVQLVESGGGLVQAGGSLRLSCAASGIIFTINAMGWYRQAPGKERELVAAISGRGARTYYADSVKGRFTISRDNAKNTVYLQMNSLKPEDTAVYYCNAANSRLHGSDYWGQGTQVTVSS | high polyreactivity |
